# In US20230270832A1, “MAGEA1 IMMUNOGENIC PEPTIDES, BINDING PROTEINS RECOGNIZING MAGEA1 IMMUNOGENIC PEPTIDES, AND USES THEREOF” (TScan Therapeutics, Inc., priority 2021, published 2023):
# Legend:
# [1] = system: primary cells from healthy HLA-C*07:02+ human donors; test: Co-culture with normal primary cells, IFNγ secretion; format: cell-based; details: pan T cells, non-pulsed primary cells vs MAGE-A1 peptide pulsed
# From the text: Primary normal cells from C*07:02+ donors that were expanded, confirmed to maintain differentiation states, and frozen were obtained (Lonza). Tested samples include: Human umbilical vein endothelial cells (HUVEC (CC-2517)), lung small airway epithelial cells (SAEC (CC-2547)) and lung bronchial-tracheal epithelial cells (NHBE (CC-2540)).
# Prior to co-culture assays, primary normal cells were thawed, washed, resuspended in RPMI media supplemented with IL-2, IL-7, and IL-15 and seeded in 96-well flat-bottom culture plates at a density of 200,000 cells/well and allowed to rest for 4 hours. Cells were pulsed with MAGE-A1 peptide for 1-2 hours or left un-pulsed in their respective media. HN-32-41 or untransduced (NTD) T cells were then added at a density of 100,000 cells/well in complete T cell media. 24 hours post co-culture, supernatants were collected and frozen at −80° C.). Supernatants were thawed and analyzed for IFN-γ levels by loading on a Simple Plex Human IFN-gamma (3rd Gen) Cartridge (ProteinSimple, San Jose, Calif.) using the Ella™ instrument.
# For flow cytometry analysis (Cytoflex S™ instrument, Beckman Coulter), cell pellets were washed with FACS buffer (PBS, 0.5% BSA, 2 mM EDTA) and stained for activation-induced markers, including PE-conjugated anti-CD137 (Miltenyi), AF647-conjugated anti-CD69 (Biolegend), and BV421-conjugated anti-CD8 (BioLegend).
# LAMB4-IR peptide = test: Peptide validation of off-target with dilutions of cross-reactive peptide; format: cell-based, human; details: LAMB4-IR peptide below 2,000 ng/mL
# Description: MHC-Flurry (O'Donnell et al. (2020) Cell Systems 42-48.e7) was used to predict peptides from LAMB4-IR with high-affinity binding to C*07:02. Predicted high-binding peptides were synthesized (GenScript). Monoallelic C*07:02 HEK293T reporter cells were pulsed with serial dilutions 0-20,000 ng/ml of the top peptide candidate for 1 hour and then co-cultured with TCR-transduced T cells (HN-32-41) at an E:T ratio of ˜2:1. After 4 hours, the cultures were harvested by pipetting and fluorescence of the reporter was detected using a CytoFLE.X™ S instrument (Beckman Coulter).
# [2] = target: T1, epitope from MAGEA1 presented by HLA C*07:02 (Homo sapiens, UniProt P10321+P43355, DEL298-309); test: Identification of MAGEA1-reactive TCRs from pool of TCR-transduced T cells (CD137/CD69 sorting, TCR sequencing); format: cell-based; details: target cells transduced with MAGEA1 90-mer
# T1 construct: an individual 90-amino acid fragments representing the top-scoring MAGEA1 tile from the screen; expressed in transfected cells; host or cells: MHC monoallelic C*07:02 HEK293T cells, lentivirally transduced with the MAGEA1 90-mer
# From the text: Ten orphan TCRs from this patient were pooled together to identify their cognate antigens using the genome-wide TargetScan technology. This screen identified MAGEA1 as a novel target. […] Note that the term “TCR32-39” may also be known as “TCR39” and the term “TCR32-41” may also be known as “TCR41”.
# To identify the corresponding TCR from the pool of TCR-transduced T cells, Ml-IC monoallelic C*07:02 HEK293T cells engineered to express the MAGEA1 90mer were co-cultured with the pool of T cells at an E:T ratio of 1:1 for 16-24 hours. The T cells were mixed, collected by pipetting, and labeled with a CD137 microbead kit (Miltenyi) following the manufacturer's instructions. In brief, T cells were first stained with PE-labeled anti-CD137 and AF647-labeled anti-CD69 (BioLegend), washed, and then labeled with anti-PE microbeads. Labeled cells were enriched with an autoMACS® Pro separator (Miltenyi) and CD137 and CD69 double-positive cells were sorted on a MoFlo® Astrios™ Cell Sorter (Beckman Coulter). Genomic DNA was extracted from the sorted cells and the TCR expression cassette was PCR amplified and prepared for next generation sequencing (NGS).
# [3] = system: cell lines with low to zero MAGEA1 expression; format: cell-based, human
# Description: Cancer cell lines were purchased from ATCC (Manassas, Vα.) and HEK293T cells were originally from Takara Bio (Shiga, Japan). All media were supplemented with […], except U266B1 which required 15% FBS, and 1% penicillin and incubated at 37° C. in 5% CO2. A101D (high MAGE-A1 expresing cells; TPM: 359), A2058 (medium MAGE-A1 expresing cells; TPM: 128), HS294T, and HEK293T cells were maintained in complete DMEM. SK-MEL-5 was cultured in complete EMEM, whereas U266B1, NCIH1437 and 786-0 required complete RPMI. Untransduced cancer cells were maintained in preparation for the T cell recognition assay, and 10^6 cells of each cell line were introduced with Incucyte® NucLight™ Red lentivirus reagent (Sartorius, Gottingen, Germany) Positively-labeled cells were selected using 1.5 ug/mL of puromycin over 72 hours.
# Cancer cells selected for Incucyte® NucLight™ analysis were seeded into 96-well flat bottom plates (Corning, Flintshire, UK) at 10^4 cells. On the same day, T cells were thawed, washed in complete RPMI-1640, and allowed to rest overnight in medium with 50 U/mL IL-2 (PeproTech), 5 ng/mL IL-7, and 5 ng/mL IL-15 (R&D Systems). All cells were rested overnight at 37° C. in 5% CO2. […] Imaging utilized a 4x objective lens and data were analyzed using the Incucyte® Basic Software. […]
molecule,measurement,setting,value
"TCR 32-41: T cell receptor recognizing MAGEA1 epitope presented by HLA-C*07:02; alpha TRAV27/TRAJ52, beta TRBV12-4/TRBJ1-4; wild type, HM and MGTM sequences listed (protein) TCR alpha: QLLEQSPQFLSIQEGENLTVYCNSSSVFSSLQWYRQEPGEGPVLLVTVVTGGEVKKLKRLTFQFGDARKDSSLHITAAQPGDTGLYLCAGDESISYGKLTFGQGTILTVHPNIQNPEPAVYQLKDPRSQDSTLCLFTDFDSQINVPKTMESGTFITDKCVLDMKAMDSKSNGAIAWSNQTSFTCQDIFKETNATYPSSDVPCDATLTEKSFETDMNLNFQNLLVMVLRILLLKVAGFNLLMTLRLWSS TCR beta: DAGVIQSPRHEVTEMGQEVTLRCKPISGHDYLFWYRQTMMRGLELLIYFNNNVPIDDSGMPEDRFSAKMPNASFSTLKIQPSEPRDSAVYFCASSFLGWNEKLFFGSGTQLSVLEDLRNVTPPKVSLFEPSKAEIANKQKATLVCLARGFFPDHVELSWWVNGKEVHSGVCTDPQAYKESNYSYCLSSRLRVSATFWHNPRNHFRCQVQFHGLSEEDKWPEGSPKPVTQNISAEAWGRADCGITSASYQQGVLSATILYEILLGKATLYAVLVSTLVVMAMVKRKNS",reactivity to normal human cells (IFNγ secretion in culture supernatants),[1],does not show reactivity to normal human cells
same,reactivity to normal human cells (IFNγ secretion in culture supernatants),[1]; listed as TCR41,did not react with healthy human primary cells
same,reactivity to cross-reactive off-target peptide,LAMB4-IR peptide,poor reactivity
same,recognition of MAGEA1 epitope / identification as MAGEA1-reactive TCR,[2]; listed as HN-32-41,recognizing the same novel epitope from MAGEA1 presented by HLA C*07:02
same,recognition of MAGEA1 epitope / identification as MAGEA1-reactive TCR,[2]; listed as TCR 41,hits
same,cytotoxic activity (killing) on cell lines with low to zero MAGEA1,[3],does not kill cell lines with low to zero MAGEA1 expression
